In PMC4601012 (Scientific Reports, 2015):

Legend:
[1] = target: T1, CA/09 H1 HA: hemagglutinin of A/California/7/2009 (H1N1) (Influenza A virus A/California/07/2009 …, UniProt C3W5X2, strain); assay: ELISA; conditions: one partner purified
T1 construct: source: insect cells, expressed and purified (Supplementary Methods)

[2] = target: T1, CA/09 H1 HA: hemagglutinin of …; assay: SPR; conditions: both partners purified
[3] = target: BS/07 H1 HA: hemagglutinin of A/Brisbane/59/2007(H1N1) (Influenza A virus A/Brisbane/59/2007 …, strain); assay: ELISA

| Binder | normalized binding affinity (relative to F10 scFv) [1] | Kd [2] | koff [2] | kon [2] | binding result ([3]; both partners purified) | binding result ([3]; one partner purified) |
| --- | --- | --- | --- | --- | --- | --- |
| H123#437 scFv (scFv, V domains shown, source: E. coli ER2738, phage-free soluble scFv in filtered culture supernatant; not shown: E-tag, C-terminal, kept) VH: QVQLVQSGAEVKKPGSSVKVSCTSSEFMFPAFAISWVRQAPGQGLEWLGGISPMFDHPNYAQKFQGRVTITADQSTRTAYMDLRSLRSEDTAVYYCARSPTYLPSGVFDHWGQGTLVTVSS VL: QPGLTQPPSVSKGLRQTATLTCTGNSNNVGNQGAAWLQQHQGHPPKLLSYRNNDRPSGISERFSASRSGNTASLTITGLQPEDEADYYCSTWDSSLSAVVFGGGTKLTVL | 5.2 | – | – | – | – | – |
| H123#437 IgG (antibody, V domains shown) VH: QVQLVQSGAEVKKPGSSVKVSCTSSEFMFPAFAISWVRQAPGQGLEWLGGISPMFDHPNYAQKFQGRVTITADQSTRTAYMDLRSLRSEDTAVYYCARSPTYLPSGVFDHWGQGTLVTVSS VL: QPGLTQPPSVSKGLRQTATLTCTGNSNNVGNQGAAWLQQHQGHPPKLLSYRNNDRPSGISERFSASRSGNTASLTITGLQPEDEADYYCSTWDSSLSAVVFGGGTKLTVL | – | 0.091 nM | 3.52e-05 s⁻¹ | 386000 M⁻¹ s⁻¹ | binds | – |
| F10 scFv (scFv, V domains shown, not shown: E-tag, C-terminal, kept) VH: QVQLVQSGAEVKKPGSSVKVSCTSSEVTFSSFAISWVRQAPGQGLEWLGGISPMFGTPNYAQKFQGRVTITADQSTRTAYMDLRSLRSEDTAVYYCARSPSYICSGGTCVFDHWGQGTLVTVSS VL: QPGLTQPPSVSKGLRQTATLTCTGNSNNVGNQGAAWLQQHQGHPPKLLSYRNNDRPSGISERFSASRSGNTASLTITGLQPEDEADYYCSTWDSSLSAVVFGGGTKLTVL | – | – | – | – | – | binds |
| F10 IgG (antibody, V domains shown) VH: QVQLVQSGAEVKKPGSSVKVSCTSSEVTFSSFAISWVRQAPGQGLEWLGGISPMFGTPNYAQKFQGRVTITADQSTRTAYMDLRSLRSEDTAVYYCARSPSYICSGGTCVFDHWGQGTLVTVSS VL: QPGLTQPPSVSKGLRQTATLTCTGNSNNVGNQGAAWLQQHQGHPPKLLSYRNNDRPSGISERFSASRSGNTASLTITGLQPEDEADYYCSTWDSSLSAVVFGGGTKLTVL | – | 0.046 nM | 1.11e-05 s⁻¹ | 240000 M⁻¹ s⁻¹ | binds | – |
